From the supplement of paper PMC9732359
± gives the uncertainty stated by the source.

Assay: protein stability index of a GFP-peptide fusion (yeast GPS) (PSI 1-4); higher = more stable; sorted into four equal gates, so the index is relative within each strain
How it was run: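 Tiled 17-residue peptides from yeast proteins were fused downstream of GFP on a plasmid that also expresses Cherry, and the pooled library was carried in yeast. Mid-log cultures grown in leucine-free medium were sorted into four equal gates by GFP/Cherry fluorescence ratio. Plasmids from each gate were PCR-amplified and Illumina-sequenced, and reads were assigned to strains by barcodes. Each peptide's protein stability index is the sum, over gates, of the gate's read frequency multiplied by its gate number.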

Sequence: DLQKLLKGIQEFGADWY [SWI3]
- protein stability index (doa10∆): 3.1 ± 0.062
- protein stability index (pdr5∆): 3.07 ± 0.056
- protein stability index (san1∆): 3.09 ± 0.043
- protein stability index (ubr1∆): 3.22 ± 0.053

Sequence: KTTYYYYNEEGIHILLY [RPC82]
- protein stability index (doa10∆): 1.9 ± 0.12
- protein stability index (ubr1∆): 2.75 ± 0.05

Sequence: EQYTKKINSWDQVLVKG [YJL041W/NSP1]
- protein stability index (doa10∆): 1.72 ± 0.095
- protein stability index (pdr5∆): 2.29 ± 0.1
- protein stability index (ubr1∆): 1.48 ± 0.087

Sequence: VNDKYKTCAEVIGGNSL [SMC3]
- protein stability index (doa10∆): 3.06 ± 0.14
- protein stability index (pdr5∆): 3.15 ± 0.16
- protein stability index (san1∆): 3.29 ± 0.11
- protein stability index (ubr1∆): 3.21 ± 0.15

Sequence: PSESEHPIRVLMASVIL [YDL116W/NUP84]
- protein stability index (doa10∆): 1.87 ± 0.076
- protein stability index (pdr5∆): 1.89 ± 0.064
- protein stability index (san1∆): 1.75 ± 0.062
- protein stability index (ubr1∆): 1.78 ± 0.08

Sequence: FSKILPAALDGLMKSYK [ESC2]
- protein stability index (doa10∆): 2.71 ± 0.059
- protein stability index (pdr5∆): 2.28 ± 0.069
- protein stability index (san1∆): 2.73 ± 0.051
- protein stability index (ubr1∆): 2.54 ± 0.056

Sequence: QYGYSGSSAGMNGRSLT [SNF6]
- protein stability index (doa10∆): 3.14 ± 0.07
- protein stability index (pdr5∆): 3.11 ± 0.061
- protein stability index (san1∆): 3.17 ± 0.046
- protein stability index (ubr1∆): 3.1 ± 0.042

Sequence: IYLSQNELTDAIALAVR [RPN1]
- protein stability index (doa10∆): 2.58 ± 0.045
- protein stability index (pdr5∆): 2.67 ± 0.052
- protein stability index (san1∆): 2.88 ± 0.039
- protein stability index (ubr1∆): 2.59 ± 0.032

Sequence: MMTGAEQDPYSNASQMG [RPB3]
- protein stability index (doa10∆): 2.68 ± 0.14
- protein stability index (pdr5∆): 2.44 ± 0.13
- protein stability index (san1∆): 2.21 ± 0.2
- protein stability index (ubr1∆): 2.92 ± 0.1

Sequence: ATAALEIILKLCRNPLT [YJL039C/NUP192]
- protein stability index (doa10∆): 2.03 ± 0.065
- protein stability index (pdr5∆): 1.95 ± 0.063
- protein stability index (san1∆): 1.25 ± 0.098
- protein stability index (ubr1∆): 2.38 ± 0.059

Sequence: RCLVAVIQQDKYQKALH [SRP72]
- protein stability index (doa10∆): 2.46 ± 0.2
- protein stability index (pdr5∆): 2.23 ± 0.07
- protein stability index (san1∆): 1.85 ± 0.1
- protein stability index (ubr1∆): 2.09 ± 0.13

Sequence: VQGELKPTVILKLLKEN [FAS1]
- protein stability index (doa10∆): 2.36 ± 0.17
- protein stability index (pdr5∆): 2.53 ± 0.14
- protein stability index (san1∆): 2.75 ± 0.19
- protein stability index (ubr1∆): 2.99 ± 0.28

Sequence: GELKRGNESVKPQFENH [MED11]
- protein stability index (doa10∆): 3.34 ± 0.18
- protein stability index (pdr5∆): 3.21 ± 0.089
- protein stability index (san1∆): 2.98 ± 0.11
- protein stability index (ubr1∆): 2.97 ± 0.16

Sequence: TFSPSGKLGQIDYALTA [PRE8]
- protein stability index (doa10∆): 2.61 ± 0.14
- protein stability index (pdr5∆): 2.26 ± 0.092
- protein stability index (san1∆): 2.67 ± 0.12
- protein stability index (ubr1∆): 2.85 ± 0.064

Sequence: VAHITTKSPAYPMMHQV [RGR1]
- protein stability index (doa10∆): 1.79 ± 0.046
- protein stability index (pdr5∆): 1.91 ± 0.054
- protein stability index (san1∆): 1.85 ± 0.067
- protein stability index (ubr1∆): 1.68 ± 0.068

Sequence: PPDIHPNLGPQLWLNSS [GRR1]
- protein stability index (doa10∆): 3.28 ± 0.089
- protein stability index (pdr5∆): 3.36 ± 0.089
- protein stability index (san1∆): 3.21 ± 0.066
- protein stability index (ubr1∆): 3.14 ± 0.067

Sequence: RSTMMKFLKIASLKHDN [RPN3]
- protein stability index (doa10∆): 2.18 ± 0.067
- protein stability index (pdr5∆): 2.43 ± 0.072
- protein stability index (san1∆): 2.86 ± 0.089
- protein stability index (ubr1∆): 3.01 ± 0.057

Sequence: FHIDHTKPSDLTIKDIV [RPO21]
- protein stability index (doa10∆): 2.71 ± 0.048
- protein stability index (pdr5∆): 2.66 ± 0.06
- protein stability index (san1∆): 2.56 ± 0.059
- protein stability index (ubr1∆): 2.8 ± 0.035

Sequence: YLKFIPLKRAIWLIKCC [SRB8]
- protein stability index (doa10∆): 2.51 ± 0.095
- protein stability index (pdr5∆): 1.86 ± 0.069
- protein stability index (san1∆): 2.19 ± 0.16
- protein stability index (ubr1∆): 2.16 ± 0.057

Sequence: FVVKLDTVDRLIIKYQK [GAL11]
- protein stability index (doa10∆): 2.25 ± 0.042
- protein stability index (pdr5∆): 2.3 ± 0.048
- protein stability index (san1∆): 2.54 ± 0.054
- protein stability index (ubr1∆): 2 ± 0.039

Sequence: KTFDYVSDHLDAIYREL [SMC1]
- protein stability index (doa10∆): 3.31 ± 0.096
- protein stability index (pdr5∆): 3.34 ± 0.12
- protein stability index (san1∆): 3.37 ± 0.074
- protein stability index (ubr1∆): 3.12 ± 0.1

Sequence: EVYKAEKDAVSVFGFRT [RPS24A]
- protein stability index (doa10∆): 3.24 ± 0.15
- protein stability index (pdr5∆): 3.12 ± 0.086
- protein stability index (san1∆): 3.36 ± 0.07
- protein stability index (ubr1∆): 3.31 ± 0.13

Sequence: ERKSKTYVITKNGKIYL [RET1]
- protein stability index (doa10∆): 2.76 ± 0.051
- protein stability index (pdr5∆): 2.54 ± 0.057
- protein stability index (san1∆): 2.5 ± 0.059
- protein stability index (ubr1∆): 2.47 ± 0.035

Sequence: SSEIDRENVKSKDEPVS [SIR4]
- protein stability index (doa10∆): 3.13 ± 0.15
- protein stability index (pdr5∆): 3.33 ± 0.12
- protein stability index (san1∆): 2.92 ± 0.082
- protein stability index (ubr1∆): 3.27 ± 0.086

Sequence: EIKNWISDIPYVISLSY [YMR129W/POM152]
- protein stability index (ubr1∆): 1.27 ± 0.27

Sequence: YSILGDRFKYRSVDRAG [POP4]
- protein stability index (pdr5∆): 2.93 ± 0.23
- protein stability index (san1∆): 3.45 ± 0.13

Sequence: GGVMANRKIARMRHSKR [YOR098C/NUP1]
- protein stability index (doa10∆): 3.31 ± 0.13
- protein stability index (pdr5∆): 3.6 ± 0.085
- protein stability index (san1∆): 3.34 ± 0.09
- protein stability index (ubr1∆): 3.32 ± 0.1

Sequence: VRDPWSIDFRTYRCSIK [SRB2]
- protein stability index (doa10∆): 2.35 ± 0.11
- protein stability index (pdr5∆): 2.41 ± 0.12
- protein stability index (san1∆): 1.47 ± 0.13
- protein stability index (ubr1∆): 2.31 ± 0.083
